Data reported in patent US20220204643A1 (published 2022).
Values belong to the binder of their own block, whether it stands above or below them.

How the values were obtained:
[1] = target: T1, ankyrin repeat domain 53, transcript variant 2 (human); assay: protein array, with experimental replicate
T1 construct: on protein array; also called ANKRD53
T1 chain: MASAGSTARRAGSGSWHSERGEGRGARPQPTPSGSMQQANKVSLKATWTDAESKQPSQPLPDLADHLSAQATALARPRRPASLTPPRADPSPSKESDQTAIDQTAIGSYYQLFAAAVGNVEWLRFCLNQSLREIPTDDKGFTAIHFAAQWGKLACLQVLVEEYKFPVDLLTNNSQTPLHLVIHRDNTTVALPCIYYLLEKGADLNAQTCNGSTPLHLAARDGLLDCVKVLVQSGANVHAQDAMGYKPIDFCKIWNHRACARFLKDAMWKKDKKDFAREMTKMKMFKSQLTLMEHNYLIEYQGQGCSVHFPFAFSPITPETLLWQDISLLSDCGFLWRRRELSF

[2] = target: aldo-keto reductase family 1 member B, transcript variant 1 (human, UniProt P15121 2-316); assay: protein array
[3] = target: T2, dynein axonemal assembly factor 3, transcript variant 3 (human, UniProt Q8N9W5 1-541); assay: protein array
T2 construct: on protein array; also called DNAAF3
T2 sequence: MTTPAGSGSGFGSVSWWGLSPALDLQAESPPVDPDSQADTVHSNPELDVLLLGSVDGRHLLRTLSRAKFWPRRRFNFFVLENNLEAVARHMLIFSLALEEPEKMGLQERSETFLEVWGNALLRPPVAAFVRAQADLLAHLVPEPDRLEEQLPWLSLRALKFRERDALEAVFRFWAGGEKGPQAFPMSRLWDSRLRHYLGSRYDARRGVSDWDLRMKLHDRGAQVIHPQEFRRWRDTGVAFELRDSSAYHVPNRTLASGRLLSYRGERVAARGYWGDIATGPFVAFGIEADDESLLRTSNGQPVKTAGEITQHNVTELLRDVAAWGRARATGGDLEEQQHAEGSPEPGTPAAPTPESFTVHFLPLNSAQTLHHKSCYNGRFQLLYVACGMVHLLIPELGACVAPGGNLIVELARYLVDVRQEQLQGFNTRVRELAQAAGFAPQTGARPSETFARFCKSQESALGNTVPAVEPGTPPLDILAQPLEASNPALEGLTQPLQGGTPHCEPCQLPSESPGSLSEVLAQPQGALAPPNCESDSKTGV

[4] = target: T3, CDP-diacylglycerol synthase 1 (human, UniProt Q92903 1-461); assay: protein array
T3 construct: on protein array; also called CDS1
T3 sequence: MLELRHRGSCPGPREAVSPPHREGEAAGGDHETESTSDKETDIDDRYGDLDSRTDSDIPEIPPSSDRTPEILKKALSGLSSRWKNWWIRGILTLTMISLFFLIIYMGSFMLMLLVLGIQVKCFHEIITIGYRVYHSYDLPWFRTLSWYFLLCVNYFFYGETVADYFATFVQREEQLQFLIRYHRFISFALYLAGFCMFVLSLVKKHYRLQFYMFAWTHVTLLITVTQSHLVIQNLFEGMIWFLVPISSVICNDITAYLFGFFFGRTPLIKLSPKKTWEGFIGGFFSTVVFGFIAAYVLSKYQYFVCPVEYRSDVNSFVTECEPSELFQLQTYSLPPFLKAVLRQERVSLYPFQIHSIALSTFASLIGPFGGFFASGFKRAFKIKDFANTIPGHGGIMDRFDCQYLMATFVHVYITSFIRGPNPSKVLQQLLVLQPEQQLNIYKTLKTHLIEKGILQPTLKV

[5] = target: T4, S100 calcium binding protein B (human, UniProt P04271 2-92); assay: protein array, with experimental replicate
T4 construct: on protein array; also called S100B
T4 sequence: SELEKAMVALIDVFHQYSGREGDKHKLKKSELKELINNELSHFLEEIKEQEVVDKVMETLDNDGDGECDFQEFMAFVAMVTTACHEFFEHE

[6] = target: T5, checkpoint kinase 2, transcript variant 3 (human); assay: protein array
T5 construct: on protein array; also called CHEK2
T5 chain: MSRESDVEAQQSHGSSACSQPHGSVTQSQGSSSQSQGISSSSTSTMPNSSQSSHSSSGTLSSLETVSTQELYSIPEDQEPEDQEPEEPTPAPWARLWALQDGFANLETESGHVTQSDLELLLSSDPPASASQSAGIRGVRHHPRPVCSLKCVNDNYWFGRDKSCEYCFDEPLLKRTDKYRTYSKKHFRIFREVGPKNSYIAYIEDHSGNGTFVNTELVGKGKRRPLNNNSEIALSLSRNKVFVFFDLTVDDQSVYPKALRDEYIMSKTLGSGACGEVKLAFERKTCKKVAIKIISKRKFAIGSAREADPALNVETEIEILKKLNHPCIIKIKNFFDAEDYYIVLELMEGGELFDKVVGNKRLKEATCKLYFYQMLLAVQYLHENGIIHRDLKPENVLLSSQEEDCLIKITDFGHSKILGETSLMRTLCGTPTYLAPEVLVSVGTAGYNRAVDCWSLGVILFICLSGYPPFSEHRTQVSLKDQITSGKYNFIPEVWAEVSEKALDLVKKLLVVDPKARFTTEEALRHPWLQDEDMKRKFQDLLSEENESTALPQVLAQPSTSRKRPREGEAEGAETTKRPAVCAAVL

[7] = target: T6, RAD1 checkpoint DNA exonuclease, transcript variant 1 (human, UniProt O60671 1-282); assay: protein array
T6 construct: on protein array
T6 sequence: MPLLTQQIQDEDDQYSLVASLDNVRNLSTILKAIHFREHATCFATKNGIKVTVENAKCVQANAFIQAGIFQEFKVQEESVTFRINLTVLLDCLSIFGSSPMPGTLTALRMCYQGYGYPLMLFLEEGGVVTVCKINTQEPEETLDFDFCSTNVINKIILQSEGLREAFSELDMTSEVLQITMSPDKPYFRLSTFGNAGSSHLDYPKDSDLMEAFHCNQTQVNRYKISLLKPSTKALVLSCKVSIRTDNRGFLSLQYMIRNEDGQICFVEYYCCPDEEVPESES

[8] = target: T7, Microtubule associated scaffold protein 1 (human, UniProt Q9ULD2 875-1270); assay: protein array
T7 construct: on protein array; also called MTUS1
T7 sequence: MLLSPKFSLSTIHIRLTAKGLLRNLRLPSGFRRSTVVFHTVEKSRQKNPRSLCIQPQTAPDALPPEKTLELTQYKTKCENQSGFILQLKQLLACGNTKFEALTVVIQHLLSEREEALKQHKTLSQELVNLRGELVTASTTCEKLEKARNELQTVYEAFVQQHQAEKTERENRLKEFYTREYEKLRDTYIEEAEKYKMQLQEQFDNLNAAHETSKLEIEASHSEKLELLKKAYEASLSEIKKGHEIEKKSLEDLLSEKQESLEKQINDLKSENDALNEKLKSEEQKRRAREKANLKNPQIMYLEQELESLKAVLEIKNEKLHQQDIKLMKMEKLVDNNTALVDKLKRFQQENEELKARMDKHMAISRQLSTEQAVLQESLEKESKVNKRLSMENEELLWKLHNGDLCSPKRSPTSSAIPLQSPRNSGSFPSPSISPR

binding result [1]: binds
B1: TKIC10019 (antibody, V domains shown)
VH: QLQLQESGPGLVKPSETLSLTCTVSDVSIISSFYYWGWIRQPPGKGLEWIGSVYYSGSTSYNPSLKSRVTISADTSKAHFSLNLRSVTAADTAVYYCVSRGPLGGAAAGPDYWGQGALVIVSS
VL: VSSELTQDPAVSVALGQTVRITCQGDSLRSYYATWYQQKPGQAPLLVIFDKDKRPSGIPDRFSGSSSGNTASLTITGAQPEDEAVYYCNSRDSSAHDHLLFGGGTTLTVLG
notes: VH/VL tied via antigen in summary, not by name in this stretch

binding result [2]: binds
B2: TKIC1006 (antibody, V domains shown)
VH: QVQLVQSGAEVKKPGSSVKVSCKTSGGTFSSYTISWVRQAPGQGPEWMGRIIPILNITNYAQKFQGRVTITADKSTSTTYMEMGSLRSEDTAVYFCARSFYGSGLQWGQGTLVTVSS
VL: EIVLTQSPGTLSLSPGERATLSCRASQSVSSSYLVWYQQKAGQAPRLLIYGASSRATGISDRFSGSGSGTDFTLTISRLEPEDFAVYYCQHFRSSPPTYTFGQGTKLEIKR
notes: as for B1

binding result [3]: binds | binding result [4]: binds
B3: THNS1014 (antibody, V domains shown)
VH: HVQLLQSGPGLVKPSQTLSLTCAISGDSVSSTSGAWNWIRQSPSRGLEWLGRTYYRSQWMNDYAESVRSRITINPDTSKNQFSLQLKSVTPEDTAVYYCTRGWAFTSSDWGQGTQVTVSS
VL: EIVLTQSPGTLSLSPGERATLSCRASQSFDGKSLAWYQQKPGQTPRLLVYGASSRATGIPDRFGGSGSGTDFTLTISRLESEDFAVYFCQQYAYVPITFGQGTRLERKR
notes: VH/VL only

binding result [5]: binds
B4: TKIC10012 (antibody, V domains shown)
VH: VVQLVESGGGLVQPGGSLRLSCAASGFSFSTYWMSWVRQAPGKGLEWVANIKQDGSEKHYVDSVKGRFTISRDNAKNSLYLQMNSLRAEDTAMYYCARRAYSFDYWGQGTLVTVSS
VL: DIQMTQSPSTLSASVGDKVTITCRASQSVGSWLAWYQQKPGKAPKLLISVASSLESGVPSRFSGSGSGTEFTLTVSSLQPDDFATYYCQQYNSYSWTFGQGTKVELKR
notes: as for B1

binding result [6]: binds
B5: TKIC10013 (antibody, V domains shown)
VH: EVQLVESGGGLVQPGGSLRLSCAASGFTFNNYWMHWVRQAPGKGLVWVSRISSDGSTTASADSVKGRFTISRDNAKNTLFLQMNSLRAEDTAVYYCAREGAPDDYGDSGTAFDIWGQGTTVTVSS
VL: DIQLTQSPSFLSASVGDRVTITCRASQDISSFLAWYQQKPGKAPDLLIYAASTLQSGVPSRFSGSGSGTEFTLTISSLQPEDFAAYYCQHLTSFPYTFGQGTKLEIKR
notes: as for B1

binding result [7]: binds | binding result [8]: binds
B6: THNS1006 (antibody, V domains shown)
VH: QVQLVESGGGVVQPGRSLRLSCAASGFTFSSYGMHWVRQAPGKGLEWVAIISYDGSNKYYADSVKGRFTISRDKSKNTLYLQMNSLRAEDTAVYYCAKSKGNYRDAMDVWGQGTTVTVSS
VL: SYVLTQPPSVSVAPGQTARITCGGNNIGSKSVHWYQQKPGQAPVLVVYDDSDRPSGIPERFSGSNSGNTATLTISRVEAGDEADYYCQVWDSSSDPWVFGGGTKLTVLG
notes: VH/VL only
